Assay results published in patent US20220289814A1.

What was measured:
Assay in all cases: cell-based or functional assay
[1] = molecular target: M665 ITAM-modified BCMA CAR (ISD: Linker 6-CD3ζ ITAM1-Linker 1-CD3ζ ITAM1-Linker 7-CD3ζ ITAM1-Linker 2) (UniProt P01732)
[2] = molecular target: M663 ITAM-modified BCMA CAR (ISD: Linker 6-CD3ζ ITAM1-Linker 1-CD3ζ ITAM2-Linker 7-CD3ζ ITAM3-Linker 2) (UniProt P01732)
[3] = molecular target: M666 ITAM-modified BCMA CAR (ISD: Linker 6-CD3ζ ITAM2-Linker 1-CD3ζ ITAM2-Linker 7-CD3ζ ITAM2-Linker 2) (UniProt P01732)
M666 ITAM-modified BCMA CAR (ISD: Linker 6-CD3ζ ITAM2-Linker 1-CD3ζ ITAM2-Linker 7-CD3ζ ITAM2-Linker 2), sequence (P01732 whole entry): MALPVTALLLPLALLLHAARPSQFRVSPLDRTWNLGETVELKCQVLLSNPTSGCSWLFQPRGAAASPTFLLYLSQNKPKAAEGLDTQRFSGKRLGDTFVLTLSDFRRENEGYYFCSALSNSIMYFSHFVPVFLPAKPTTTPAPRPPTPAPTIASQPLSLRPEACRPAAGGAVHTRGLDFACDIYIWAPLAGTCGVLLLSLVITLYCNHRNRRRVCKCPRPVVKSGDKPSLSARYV

M663 ITAM-modified BCMA CAR (ISD: Linker 6-CD3ζ ITAM1-Linker 1-CD3ζ ITAM2-Linker 7-CD3ζ ITAM3-Linker 2), sequence (P01732 whole entry): as above
M665 ITAM-modified BCMA CAR (ISD: Linker 6-CD3ζ ITAM1-Linker 1-CD3ζ ITAM1-Linker 7-CD3ζ ITAM1-Linker 2), sequence (P01732 whole entry): as above

How did the Relative ISD-modified CAR expression (CAR positive rate, FACS with FITC-labeled human BCMA, normalized to empty vector control), day 3 after Nef transduction [1] turn out when wildtype SIV Nef was run?
The Relative ISD-modified CAR expression (CAR positive rate, FACS with FITC-labeled human BCMA, normalized to empty vector control), day 3 after Nef transduction was 82.3%.

What about the Relative ISD-modified CAR expression (CAR positive rate, FACS with FITC-labeled human BCMA, normalized to empty vector control), day 3 after Nef transduction [2] of the same substance?
Its Relative ISD-modified CAR expression (CAR positive rate, FACS with FITC-labeled human BCMA, normalized to empty vector control), day 3 after Nef transduction is 46.7%.

What about the Relative ISD-modified CAR expression (CAR positive rate, FACS with FITC-labeled human BCMA, normalized to empty vector control), day 3 after Nef transduction [3] of the same substance?
Its Relative ISD-modified CAR expression (CAR positive rate, FACS with FITC-labeled human BCMA, normalized to empty vector control), day 3 after Nef transduction is 57%.
